T1: CCR9 (UniProt P51686 1-369, limits assumed)
T1 construct: whole, on cells; also called PF382 cells (CCR7-/CCR9+/CCR6+)
T1 sequence (looked up): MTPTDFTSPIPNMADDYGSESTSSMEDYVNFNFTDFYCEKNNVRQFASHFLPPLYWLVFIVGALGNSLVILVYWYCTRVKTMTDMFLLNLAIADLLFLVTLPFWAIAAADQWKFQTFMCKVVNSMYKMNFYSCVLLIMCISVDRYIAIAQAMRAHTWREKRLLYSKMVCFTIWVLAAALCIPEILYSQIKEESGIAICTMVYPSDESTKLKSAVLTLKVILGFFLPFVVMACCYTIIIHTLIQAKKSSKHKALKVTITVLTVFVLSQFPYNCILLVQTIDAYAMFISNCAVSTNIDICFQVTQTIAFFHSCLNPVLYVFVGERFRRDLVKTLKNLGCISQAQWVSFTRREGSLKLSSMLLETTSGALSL

T2: CCR6 (UniProt P51684 1-374, limits assumed)
T2 construct: whole, on cells; also called PF382 cells (CCR7-/CCR9+/CCR6+)
T2 sequence (looked up): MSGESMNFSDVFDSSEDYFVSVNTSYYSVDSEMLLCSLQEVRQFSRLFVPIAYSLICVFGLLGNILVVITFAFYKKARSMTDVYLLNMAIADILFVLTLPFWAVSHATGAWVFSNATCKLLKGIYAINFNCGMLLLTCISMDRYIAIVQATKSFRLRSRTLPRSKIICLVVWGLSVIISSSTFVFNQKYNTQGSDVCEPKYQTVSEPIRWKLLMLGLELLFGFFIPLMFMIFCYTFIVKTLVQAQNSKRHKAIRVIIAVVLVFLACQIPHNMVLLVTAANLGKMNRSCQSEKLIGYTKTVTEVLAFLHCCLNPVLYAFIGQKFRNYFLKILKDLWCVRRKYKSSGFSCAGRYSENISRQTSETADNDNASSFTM

T3: cynomolgus monkey CCR7 (cynomolgus monkey, UniProt P32248 25-378 (human entry))
T3 construct: also called Cyno CCR7; NIH3T3.cyno CCR7
T3 sequence: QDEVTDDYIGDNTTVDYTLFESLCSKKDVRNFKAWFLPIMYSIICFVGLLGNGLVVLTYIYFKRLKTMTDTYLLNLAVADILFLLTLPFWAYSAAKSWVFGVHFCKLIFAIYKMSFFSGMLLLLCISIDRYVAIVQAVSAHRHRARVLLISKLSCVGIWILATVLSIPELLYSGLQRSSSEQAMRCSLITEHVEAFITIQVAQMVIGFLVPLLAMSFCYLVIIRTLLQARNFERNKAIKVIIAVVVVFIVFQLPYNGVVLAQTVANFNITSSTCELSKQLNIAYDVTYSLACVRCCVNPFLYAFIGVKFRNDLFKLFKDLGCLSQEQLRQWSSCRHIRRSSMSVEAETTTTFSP

T4: human CCR7 (human, UniProt P32248 25-378)
T4 construct: The assay field tells which; also called hCCR7; NIH3T3.hCCR7
T4 sequence: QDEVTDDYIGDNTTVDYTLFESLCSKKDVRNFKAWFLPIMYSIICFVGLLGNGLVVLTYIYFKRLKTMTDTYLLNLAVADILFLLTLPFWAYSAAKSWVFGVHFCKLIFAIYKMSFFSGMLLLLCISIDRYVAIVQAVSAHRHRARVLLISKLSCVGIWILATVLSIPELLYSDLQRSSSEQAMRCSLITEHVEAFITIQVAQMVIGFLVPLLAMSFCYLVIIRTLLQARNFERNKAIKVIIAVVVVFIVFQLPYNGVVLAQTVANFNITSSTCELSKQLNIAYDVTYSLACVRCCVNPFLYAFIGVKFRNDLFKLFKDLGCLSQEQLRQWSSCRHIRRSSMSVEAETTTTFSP

T5: recombinant hCCR7 (Origene #TP306614) (human, UniProt P32248 25-378, limits assumed)
T5 construct: Bought protein coated on ELISA plates; also called recombinant CCR7
T5 sequence (looked up): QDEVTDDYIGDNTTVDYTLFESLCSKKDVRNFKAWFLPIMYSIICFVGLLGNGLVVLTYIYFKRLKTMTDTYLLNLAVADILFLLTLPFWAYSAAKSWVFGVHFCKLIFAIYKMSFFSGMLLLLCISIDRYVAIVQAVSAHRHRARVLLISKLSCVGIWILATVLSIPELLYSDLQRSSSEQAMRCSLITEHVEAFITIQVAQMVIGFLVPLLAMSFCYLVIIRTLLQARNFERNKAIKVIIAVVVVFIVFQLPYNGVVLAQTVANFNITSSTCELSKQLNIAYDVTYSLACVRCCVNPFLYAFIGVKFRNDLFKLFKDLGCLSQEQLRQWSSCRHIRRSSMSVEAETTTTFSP


Experiments:
CCR8 = biological target: T6, CCR8 (UniProt P51685 1-355, limits assumed); experiment: FACS on CHO-CCR8 cells
T6 construct: whole, on cells; also called CHO-CCR8

CXCR4 = biological target: T7, CXCR4 (UniProt P61073 1-352, limits assumed); experiment: FACS on HEK293-CXCR4 cells
T7 construct: whole, on cells; also called HEK293-CXCR4

CCR9 = biological target: T1, CCR9; experiment: FACS on PF382 cells (CCR7-/CCR9+/CCR6+)
CCR6 = biological target: T2, CCR6; experiment: FACS on PF382 cells (CCR7-/CCR9+/CCR6+)
cynomolgus monkey CCR7 = biological target: T3, cynomolgus monkey CCR7; experiment: FACS titration, cynomolgus CD4+ T cells
human CCR7 [1] = biological target: T4, human CCR7; experiment: ELISA on CCR7-expressing VLPs, pH 5.8 buffer
human CCR7 [2] = biological target: T4, human CCR7; experiment: ELISA on CCR7-expressing VLPs, pH 7.4 buffer
human CCR7 [3] = biological target: T4, human CCR7; experiment: cell-based or functional assay
human CCR7 [4] = biological target: T4, human CCR7; experiment: FACS titration, DEL cancer cells (receptor density ~100,000)
human CCR7 [5] = biological target: T4, human CCR7; experiment: FACS titration, human CD4+ T cells (receptor density <2,000)
[6] = biological target: T5, recombinant hCCR7 (Origene #TP306614); experiment: ELISA, recombinant CCR7 coated at 3.5 ug/ml, antibody titrated
human CCR7 [7] = biological target: T4, human CCR7; experiment: FACS titration, NIH3T3.hCCR7 cells (receptor density >1,000,000)
[8] = biological target: T5, recombinant hCCR7 (Origene #TP306614); experiment: ELISA on plate-coated recombinant hCCR7, antibody titrated, anti-hFc-HRP detection, OD 650 nm
human CCR7 [9] = biological target: T4, human CCR7; experiment: cell-based or functional assay; remark: listed apart in the source
human CCR7 [10] = biological target: T4, human CCR7; experiment: FACS titration, DEL cells (CCR7 receptor levels >=100,000)
human CCR7 [11] = biological target: T4, human CCR7; experiment: FACS binding on CCR7 expressing cells, against the unconjugated antibody
human CCR7 [12] = biological target: T4, human CCR7; experiment: cell-based or functional assay; remark: listed apart in the source
human CCR7 [13] = biological target: T4, human CCR7; experiment: FACS titration, human CD4+ T cells from PBMC

T7 sequence (P61073 whole entry): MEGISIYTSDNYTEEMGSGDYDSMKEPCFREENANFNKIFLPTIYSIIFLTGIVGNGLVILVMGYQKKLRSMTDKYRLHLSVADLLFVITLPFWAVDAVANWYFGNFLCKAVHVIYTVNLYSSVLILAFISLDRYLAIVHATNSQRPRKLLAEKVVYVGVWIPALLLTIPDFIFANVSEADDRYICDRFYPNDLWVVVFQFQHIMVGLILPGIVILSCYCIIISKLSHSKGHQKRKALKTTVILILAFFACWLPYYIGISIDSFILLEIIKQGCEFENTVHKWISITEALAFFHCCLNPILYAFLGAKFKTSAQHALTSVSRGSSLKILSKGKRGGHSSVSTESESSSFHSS
T6 sequence (P51685 whole entry): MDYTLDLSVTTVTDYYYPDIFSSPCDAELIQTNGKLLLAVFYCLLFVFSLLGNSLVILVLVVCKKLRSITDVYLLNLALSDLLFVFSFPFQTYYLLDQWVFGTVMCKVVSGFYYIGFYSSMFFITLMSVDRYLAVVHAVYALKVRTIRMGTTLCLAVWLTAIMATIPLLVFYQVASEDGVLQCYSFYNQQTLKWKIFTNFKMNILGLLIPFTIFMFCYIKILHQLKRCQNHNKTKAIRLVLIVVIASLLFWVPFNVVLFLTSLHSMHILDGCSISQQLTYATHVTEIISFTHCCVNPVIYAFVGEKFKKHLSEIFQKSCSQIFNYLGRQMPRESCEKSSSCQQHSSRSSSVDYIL

Binder	binding result (CCR8)	binding result (CXCR4)	binding result (CCR9)	binding result (CCR6)	EC50 (cynomolgus monkey CCR7) [nM]	Kd (human CCR7 [1]) [nM]	Kd (human CCR7 [2]) [nM]	pHrodo (6 h MFI), internalization, CD4+ T cells (receptor numbers 2000) (human CCR7 [3]) [MFI]	pHrodo (6 h MFI), internalization, CMLT1 cells (receptor numbers 19583) (human CCR7 [3]) [MFI]	pHrodo (6 h MFI), internalization, DEL cells (receptor numbers 110685) (human CCR7 [3]) [MFI]	pHrodo (6 h MFI), internalization, JVM3 cells (receptor numbers 8717) (human CCR7 [3]) [MFI]	pHrodo (6 h MFI), internalization, Jeko-1 cells (receptor numbers 28852) (human CCR7 [3]) [MFI]	pHrodo (6 h MFI), internalization, KE97 cells (receptor numbers 152093) (human CCR7 [3]) [MFI]	pHrodo (6 h MFI), internalization, L540 cells (receptor numbers 167549) (human CCR7 [3]) [MFI]	pHrodo (6 h MFI), internalization, L1236 cells (receptor numbers 61602) (human CCR7 [3]) [MFI]	pHrodo (6 h MFI), internalization, MJ cells (receptor numbers 111121) (human CCR7 [3]) [MFI]	pHrodo (6 h MFI), internalization, MOTN1 cells (receptor numbers 84200) (human CCR7 [3]) [MFI]	pHrodo (6 h MFI), internalization, Mec2 cells (receptor numbers 50840) (human CCR7 [3]) [MFI]	EC50 (human CCR7 [4]) [nM]	EC50 (human CCR7 [5]) [nM]	further results
674J13 humanized CysMab (Fc Wild Type) (antibody, V domains shown, Human IgG1 kappa with CysMab cysteines; also called Humanized CysMab antibody 674J13) VH: DVQLQESGPGLVKPSQTLSLTCTVSGYSITSGYSWHWIRQHPGKGLEWMAHIHSSGSTNYNPSLKSRITISRDTSKNQFSLKLSSVTAADTAVYYCARGGVQAFAYWGQGTLVTVSS VL: EIVLTQSPATLSASPGERVTMSCSASSSVIYMHWYQQKPGQAPRRWIYDTSKLASGVPARFSGSGSGTDYTLTISSMEPEDAAVYYCQQWSSNPLTFGQGTKLEIK	no binding (tested: 5 ug/ml)	no binding (tested: 5 ug/ml)	no binding (tested: 5 ug/ml)	no binding (tested: 5 ug/ml)	0.5	0.166	0.0162														
Humanized 121G12.CysMab.DAPA (antibody, human IgG1, kappa, Human IgG1 kappa with D265A/P329A and CysMab cysteines; also called 121G12 (Humanized CysMab, DAPA)) heavy: EVQLVESGGGLVKPGGSLRLSCAASGFTFSTYAMSWVRQAPGKGLEWVATISDAGSYSYYPDNVKGRFTISRDNAKNSLYLQMNSLRAEDTAVYYCARRGSRYEEYYVMDYWGQGTTVTVSSASTKGPSVFPLAPSSKSTSGGTAALGCLVKDYFPCPVTVSWNSGALTSGVHTFPAVLQSSGLYSLSSVVTVPSSSLGTQTYICNVNHKPSNTKVDKRVEPKSCDKTHTCPPCPAPELLGGPSVFLFPPKPKDTLMISRTPEVTCVVVAVSHEDPEVKFNWYVDGVEVHNAKTKPREEQYNSTYRVVSVLTVLHQDWLNGKEYKCKVSNKALAAPIEKTISKAKGQPREPQVYTLPPSREEMTKNQVSLTCLVKGFYPCDIAVEWESNGQPENNYKTTPPVLDSDGSFFLYSKLTVDKSRWQQGNVFSCSVMHEALHNHYTQKSLSLSPGK light: EIVLTQSPATLSVSPGERVTLSCRASQSISNNLHWYQQKPGQAPRLLIKYASQSISGIPARFSGSGSGTDFTLTISSVEPEDFGVYFCQQSSSWLTFGQGTKLEIKRTVAAPSVFIFPPSDEQLKSGTASVVCLLNNFYPREAKVQWKVDNALQSGNSQESVTEQDSKDSTYSLSSTLTLSKADYEKHKVYACEVTHQGLSSPVTKSFNRGEC								278	301	1910	148	450	1570	6840	1240	1650	1030	1340	1.78	~30	Kd [6]: 0.677 nM; EC50 (human CCR7 [7]): 2.5 nM; EC50 (read off the curve) [8]: ~0.6 nM
121G12.DAPA.sSPDB.DM4 (antibody, human IgG1, kappa, sulfo-SPDB-DM4 on endogenous lysines (sites not defined, may also be on the light chain); DAR 3.6 in Example 4B, DAR 3.9 in Tables 20 and 21, also called 121G12.sSPDB.DM4) heavy: not shown light: EIVLTQSPATLSVSPGERVTLSCRASQSISNNLHWYQQKPGQAPRLLIKYASQSISGIPARFSGSGSGTDFTLTISSVEPEDFGVYFCQQSSSWLTFGQGTKLEIKRTVAAPSVFIFPPSDEQLKSGTASVVCLLNNFYPREAKVQWKVDNALQSGNSQESVTEQDSKDSTYSLSSTLTLSKADYEKHKVYACEVTHQGLSSPVTKSFNRGEC																					ADC activity in cell viability assay; IC50 (nM); DEL cells (human CCR7 [9]): 2.98 nM; ADC activity in cell viability assay; IC50 (nM); KE97 cells (human CCR7 [9]): 3.18 nM; ADC activity in cell viability assay; IC50 (nM); L540 cells (human CCR7 [9]): 3.9 nM; EC50 (human CCR7 [10]): 8.42 nM; difference of geometric mean fluorescence intensity from the unconjugated antibody (human CCR7 [11]): ≤ 20%
Humanized 506E15.CysMab.DAPA (antibody, human IgG1, kappa, V domains shown, Human IgG1 kappa with D265A/P329A and CysMab cysteines; also called 506E15 (Humanized CysMab DAPA)) VH: EVQLVESGGGLVKPGGSLRLSCAASGFTFSSYAMSWIRQAPGKGLEWVATISSGGSFTYYPDSVKGRFTISRDNAKNSLYLQMNSLRAEDTAVYYCARRASTVVGTDFDVWGQGTTVTVSS VL: DIQMTQSPSSLSASVGDRVTLTCRASQDIGSSLNWLQQKPGKAIKRLIYATSSLDSGVPSRFSGSRSGTDYTLTISSLQPEDFVVYYCLQYASSPPTFGGGTKLEIKR								429	465	3060	238	908	2720	16100	3130	3870	2900	3090	3.09	~10	Kd [6]: 5.73 nM; EC50 (human CCR7 [7]): 1.8 nM
506E15 humanized CysMab (Fc Wild Type) (antibody, V domains shown, Human IgG1 kappa with CysMab cysteines; also called Humanized CysMab antibody 506E15) VH: EVQLVESGGGLVKPGGSLRLSCAASGFTFSSYAMSWIRQAPGKGLEWVATISSGGSFTYYPDSVKGRFTISRDNAKNSLYLQMNSLRAEDTAVYYCARRASTVVGTDFDVWGQGTTVTVSS VL: DIQMTQSPSSLSASVGDRVTLTCRASQDIGSSLNWLQQKPGKAIKRLIYATSSLDSGVPSRFSGSRSGTDYTLTISSLQPEDFVVYYCLQYASSPPTFGGGTKLEIK	no binding (tested: 5 ug/ml)	no binding (tested: 5 ug/ml)	no binding (tested: 5 ug/ml)	no binding (tested: 5 ug/ml)	7	0.494	0.0571														ADCC activity; IC50 (nM); reporter assay, JVM2 targets and Jurkat-V158 effectors (human CCR7 [12]): 0.054 nM; EC50 (human CCR7 [13]): 7.8 to 11 nM
